Laboratory results taken from patent US20210292396A1.

Experiments:
Assay in all cases: cell-based or functional assay
[1] = target: Env of HIV isolate 3365.v2.c20 (clade A) (HIV)
[2] = target: HIV Env of isolate 191821.E6.1 (HIV)
[3] = target: Env of HIV isolate BJOX009000.02.4 (clade AE) (HIV)
[4] = target: Env of HIV isolate 928-28 (clade AG) (HIV)
[5] = target: HIV Env of isolate ZM215.8 (HIV)
[6] = target: HIV Env of isolate UG021.16 (HIV)
[7] = target: Env of HIV isolate YU2.DG (clade B) (HIV)
[8] = target: Env of HIV isolate 3468.v1.c12 (clade AD) (HIV)
[9] = target: Env of HIV isolate DJ263.8 (clade AG) (HIV)
[10] = target: HIV Env of isolate 3326.v4.c3 (HIV)
[11] = target: Env of HIV isolate 6101.10 (clade B) (HIV)
[12] = target: Env of HIV isolate 242-14 (clade AG) (HIV)
[13] = target: Env of HIV isolate C4118.09 (clade AE) (HIV)
[14] = target: Env of HIV isolate DU422.01 (clade C) (HIV)
[15] = target: Env of HIV isolate 3337.v2.c6 (clade CD) (HIV)
[16] = target: Env of HIV isolate SF162.LS (clade B) (HIV)
[17] = target: Env of HIV isolate 6644.v2.c33 (clade C) (HIV)
[18] = target: HIV Env of isolate ZM233.6 (HIV)
[19] = target: Env of HIV isolate 3589.v1.c4 (clade AC) (HIV)
[20] = target: Env of HIV isolate 426c (clade C) (HIV)
[21] = target: Env of HIV isolate JRFL.JB (clade B) (HIV)
[22] = target: Env of HIV isolate Q168.a2 (clade AD) (HIV)
[23] = target: HIV Env of isolate X1254.c3 (HIV)
[24] = target: Env of HIV isolate CNE58 (clade C in Table 7) (HIV)
[25] = target: HIV Env of isolate ZM249.1 (HIV)
[26] = target: HIV Env of isolate ZM106.9 (HIV)
[27] = target: Env of HIV isolate CNE10 (clade B) (HIV)
[28] = target: Env of HIV isolate CNE15 (clade BC) (HIV)
[29] = target: HIV Env of isolate 6471.v1.c16 (HIV)
[30] = target: Env of HIV isolate Q259.17 (clade A) (HIV)
[31] = target: HIV Env of isolate TZBD.02 (HIV)
[32] = target: Env of HIV isolate ADA.DG (clade B) (HIV)
[33] = target: HIV Env of isolate CAP256.206.C9 (HIV)
[34] = target: Env of HIV isolate TRJO.58 (clade B) (HIV)
[35] = target: HIV Env of isolate 231965.c01 (HIV)
[36] = target: Env of HIV isolate 26191-2.48 (clade C) (HIV)
[37] = target: HIV Env of isolate 6785.v5.c14 (HIV)
[38] = target: Env of HIV isolate 00836-2.5 (clade C) (HIV)
[39] = target: Env of HIV isolate CNE14 (clade B) (HIV)
[40] = target: Env of HIV isolate 0077.v1.c16 (clade C) (HIV)
[41] = target: HIV Env of isolate X2088.c9 (HIV)
[42] = target: HIV Env of isolate 6322.v4.c1 (HIV)
[43] = target: Env of HIV isolate Q769.h5 (clade A) (HIV)
[44] = target: HIV Env of isolate A07412M1.vrc12 (HIV)
[45] = target: Env of HIV isolate 263-8 (clade AG) (HIV)
[46] = target: Env of HIV isolate KNH1209.18 (clade A) (HIV)
[47] = target: Env of HIV isolate M02138 (clade AE) (HIV)
[48] = target: HIV Env of isolate CH117.4 (HIV)
[49] = target: Envelope protein of SIVmac251.30.SG3 (clade NA)
[50] = target: Env of HIV isolate Q23.17 (clade A) (HIV)

B1: ePGT121.18 (ePGT121.18.H1 VH and ePGT121.17.L1 VL) (antibody, V domains shown)
VH: QMQLQESGPGLVKPGETLSLTCSVSGASISSSYWSWLRETPGKGLEWIGYTHHSGDTNYAPSLKSRVHLGLHPSKNQVSLSLTSVTAADTAVYYCARTLHGRRIYGVVAFNEYYTYFYWPTWGKGTQVTVSS
VL: SDISVAPGETVRITCGGESIGSRAVQWYQHRPGQAPRLIIYNNQDRPPGIPERFSGSPDIDFGTTATLTISNVEAGDEATYYCHIWDSRRPTNWELGPGTTLTVL
IC50, pseudovirus neutralization [1]: 4 ng/mL
IC80, pseudovirus neutralization (M1) [2]: 95 ng/mL
IC80, pseudovirus neutralization (M2) [2]: 105 ng/mL
IC50, pseudovirus neutralization [3]: 42 ng/mL
IC50, pseudovirus neutralization [4]: 76 ng/mL
IC80, pseudovirus neutralization (M1) [5]: 23 ng/mL
IC80, pseudovirus neutralization (M2) [5]: 26 ng/mL
IC80, pseudovirus neutralization (M1) [6]: 20 ng/mL
IC80, pseudovirus neutralization (M2) [6]: 19 ng/mL
IC50, pseudovirus neutralization [7]: 3 ng/mL
IC50, pseudovirus neutralization [8]: 1 ng/mL
IC50, pseudovirus neutralization [9]: 2 ng/mL
IC80, pseudovirus neutralization (M1) [10]: 2150 ng/mL
IC80, pseudovirus neutralization (M2) [10]: 6860 ng/mL
IC50, pseudovirus neutralization [11]: 1 ng/mL
IC50, pseudovirus neutralization [12]: 17300 ng/mL
IC50, pseudovirus neutralization [13]: > 50000 ng/mL
IC50, pseudovirus neutralization [14]: 6 ng/mL
IC50, pseudovirus neutralization [15]: 232 ng/mL
IC50, pseudovirus neutralization [16]: 2 ng/mL
IC50, pseudovirus neutralization [17]: 2 ng/mL
IC80, pseudovirus neutralization (M1) [18]: 24 ng/mL
IC80, pseudovirus neutralization (M2) [18]: 24 ng/mL
IC50, pseudovirus neutralization [19]: 252 ng/mL
IC50, pseudovirus neutralization [20]: 65 ng/mL
IC50, pseudovirus neutralization [21]: 6 ng/mL
IC50, pseudovirus neutralization [22]: 2930 ng/mL
IC80, pseudovirus neutralization (M1) [23]: 5 ng/mL
IC80, pseudovirus neutralization (M2) [23]: 6 ng/mL
IC50, pseudovirus neutralization [24]: 16 ng/mL
IC80, pseudovirus neutralization (M1) [25]: 992 ng/mL
IC80, pseudovirus neutralization (M2) [25]: 874 ng/mL
IC80, pseudovirus neutralization (M1) [26]: 3 ng/mL
IC80, pseudovirus neutralization (M2) [26]: 4 ng/mL
IC50, pseudovirus neutralization [27]: 2 ng/mL
IC50, pseudovirus neutralization [28]: 5690 ng/mL
IC80, pseudovirus neutralization (M1) [29]: 2940 ng/mL
IC80, pseudovirus neutralization (M2) [29]: 2620 ng/mL
IC50, pseudovirus neutralization [30]: > 50000 ng/mL
IC80, pseudovirus neutralization (M1) [31]: 4 ng/mL
IC80, pseudovirus neutralization (M2) [31]: 6 ng/mL
IC50, pseudovirus neutralization [32]: 2 ng/mL
IC80, pseudovirus neutralization (M1) [33]: 3 ng/mL
IC80, pseudovirus neutralization (M2) [33]: 4 ng/mL
IC50, pseudovirus neutralization [34]: 3 ng/mL
IC80, pseudovirus neutralization (M1) [35]: > 50000 ng/mL
IC80, pseudovirus neutralization (M2) [35]: > 50000 ng/mL
IC50, pseudovirus neutralization [36]: 3 ng/mL
IC80, pseudovirus neutralization (M1) [37]: 6 ng/mL
IC80, pseudovirus neutralization (M2) [37]: 6 ng/mL
IC50, pseudovirus neutralization [38]: 14400 ng/mL
IC50, pseudovirus neutralization [39]: 1 ng/mL
IC50, pseudovirus neutralization [40]: > 50000 ng/mL
IC80, pseudovirus neutralization (M1) [41]: 5 ng/mL
IC80, pseudovirus neutralization (M2) [41]: 9 ng/mL
IC80, pseudovirus neutralization (M1) [42]: > 50000 ng/mL
IC80, pseudovirus neutralization (M2) [42]: > 50000 ng/mL
IC50, pseudovirus neutralization [43]: > 50000 ng/mL
IC80, pseudovirus neutralization (M1) [44]: 7 ng/mL
IC80, pseudovirus neutralization (M2) [44]: 6 ng/mL
IC50, pseudovirus neutralization [45]: 4 ng/mL
IC50, pseudovirus neutralization [46]: 1 ng/mL
IC50, pseudovirus neutralization [47]: > 50000 ng/mL
IC80, pseudovirus neutralization (M1) [48]: > 50000 ng/mL
IC80, pseudovirus neutralization (M2) [48]: > 50000 ng/mL
IC50, pseudovirus neutralization [49]: > 50000 ng/mL
IC50, pseudovirus neutralization [50]: 2 ng/mL
